The record followed here is article PMC11970713 (The FEBS journal, 2024).

The data set deals with the molecule itself. Kind of data set: native gel or EMSA.

B1: Full length wild-type LpCopA (copper-transporting P1B-1-ATPase from Legionella pneumophila, Lpg1024) (natural protein)
chain: not shown
One may read the stoichiometry N as the number of molecules, sites or subunits per partner or assembly. For B1, the “stoichiometry N” value was determined as 2.
